Measurements reported in patent US20240285753A1 (DUKE UNIVERSITY, published 2024).
Changes are numbered by the printed parent chain. Like-named read-outs stand apart in the source and are kept apart here.

What was measured:
[1] = molecular target: T1, S2hlx-15; test: SPR, mAb captured, scaffold as analyte
T1 chain: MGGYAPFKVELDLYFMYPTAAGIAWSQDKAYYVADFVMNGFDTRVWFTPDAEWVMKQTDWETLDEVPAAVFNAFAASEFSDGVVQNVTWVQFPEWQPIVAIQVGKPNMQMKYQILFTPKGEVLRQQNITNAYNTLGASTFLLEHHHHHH

[2] = molecular target: T2, S2hlx-Ex37; test: SPR, mAb captured, scaffold as analyte
T2 chain: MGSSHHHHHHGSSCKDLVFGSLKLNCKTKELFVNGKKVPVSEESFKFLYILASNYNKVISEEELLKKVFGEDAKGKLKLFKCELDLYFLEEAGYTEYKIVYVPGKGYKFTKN

[3] = molecular target: T3, S2hlx-Ex25; test: SPR, mAb captured, scaffold as analyte
T3 chain: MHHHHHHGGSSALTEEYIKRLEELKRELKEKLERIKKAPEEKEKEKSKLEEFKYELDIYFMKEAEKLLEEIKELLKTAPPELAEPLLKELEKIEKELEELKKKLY

[4] = molecular target: T4, S2hlx-Ex34; test: SPR, mAb captured, scaffold as analyte
T4 chain: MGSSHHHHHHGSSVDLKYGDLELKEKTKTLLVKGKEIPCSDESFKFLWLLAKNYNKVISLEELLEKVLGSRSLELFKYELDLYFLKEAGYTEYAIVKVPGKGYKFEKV

[5] = molecular target: T5, S2hlx-Ex8-Trx; test: SPR, mAb captured, scaffold as analyte
T5 chain: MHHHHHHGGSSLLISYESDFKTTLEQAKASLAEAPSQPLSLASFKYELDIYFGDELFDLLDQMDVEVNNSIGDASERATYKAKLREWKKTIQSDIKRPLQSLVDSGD

[6] = molecular target: T6, S2hlx-Ex54; test: SPR, mAb captured, scaffold as analyte
T6 chain: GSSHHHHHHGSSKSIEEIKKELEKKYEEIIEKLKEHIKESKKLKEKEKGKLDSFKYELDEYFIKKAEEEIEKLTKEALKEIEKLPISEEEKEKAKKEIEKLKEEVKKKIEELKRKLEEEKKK

[7] = molecular target: T2, S2hlx-Ex37; test: SPR, single cycle; mAb captured on Protein A, epitope scaffold as analyte
[8] = molecular target: T7, S2hlx-Ex46; test: as above
T7 epitope scaffold: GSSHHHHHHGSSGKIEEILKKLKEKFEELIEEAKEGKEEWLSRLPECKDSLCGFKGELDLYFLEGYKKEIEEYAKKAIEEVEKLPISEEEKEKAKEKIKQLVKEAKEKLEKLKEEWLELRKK

[9] = molecular target: T6, S2hlx-Ex54; test: as above
[10] = molecular target: T8, S2hlx-Ex15 F1148A; test: ELISA; antigen coated, mAb titrated
T8 epitope scaffold: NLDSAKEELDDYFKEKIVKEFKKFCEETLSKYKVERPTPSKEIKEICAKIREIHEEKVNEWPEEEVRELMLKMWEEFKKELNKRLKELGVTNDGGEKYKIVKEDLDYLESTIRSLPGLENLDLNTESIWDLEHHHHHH

[11] = molecular target: T9, S2hlx-13; test: SPR, mAb captured, antigen as analyte
T9 epitope scaffold: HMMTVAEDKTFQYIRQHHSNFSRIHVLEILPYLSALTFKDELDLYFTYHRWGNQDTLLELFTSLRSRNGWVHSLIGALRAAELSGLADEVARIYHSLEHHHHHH

[12] = molecular target: T10, S2hlx-1; test: SPR, mAb captured, antigen as analyte
T10 epitope scaffold: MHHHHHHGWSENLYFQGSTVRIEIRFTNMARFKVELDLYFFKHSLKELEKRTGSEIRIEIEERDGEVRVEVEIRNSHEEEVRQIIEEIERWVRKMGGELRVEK

[13] = molecular target: T11, S2hlx-8; test: SPR, mAb captured, antigen as analyte
T11 epitope scaffold: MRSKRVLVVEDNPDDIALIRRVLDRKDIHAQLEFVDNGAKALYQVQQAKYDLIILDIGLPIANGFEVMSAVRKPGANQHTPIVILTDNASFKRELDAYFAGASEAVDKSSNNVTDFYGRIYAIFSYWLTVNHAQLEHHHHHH

[14] = molecular target: S2hlx-4; test: SPR, mAb captured, antigen as analyte
[15] = molecular target: S2hlx-14; test: SPR, mAb captured, antigen as analyte
[16] = molecular target: T12, S2hlx-Ex20; test: SPR, mAb captured, antigen as analyte
T12 chain: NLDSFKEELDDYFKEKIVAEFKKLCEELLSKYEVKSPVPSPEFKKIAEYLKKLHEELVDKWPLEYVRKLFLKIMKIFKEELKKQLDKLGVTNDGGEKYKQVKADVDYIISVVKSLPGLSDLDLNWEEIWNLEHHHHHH

[17] = molecular target: T9, S2hlx-13; test: SPR, mAb captured, antigen as analyte
[18] = molecular target: T10, S2hlx-1; test: SPR, mAb captured, antigen as analyte
[19] = molecular target: T11, S2hlx-8; test: SPR, mAb captured, antigen as analyte
[20] = molecular target: S2hlx-14; test: SPR, mAb captured, antigen as analyte; remark: listed apart in the source
[21] = molecular target: T12, S2hlx-Ex20; test: SPR, mAb captured, antigen as analyte
[22] = molecular target: T13, S2hlx-Ex15; test: SPR, mAb captured, antigen as analyte
T13 chain: T8 epitope scaffold with A5F

[23] = molecular target: T14, S2hlx-Ex17; test: SPR, mAb captured, antigen as analyte
T14 chain: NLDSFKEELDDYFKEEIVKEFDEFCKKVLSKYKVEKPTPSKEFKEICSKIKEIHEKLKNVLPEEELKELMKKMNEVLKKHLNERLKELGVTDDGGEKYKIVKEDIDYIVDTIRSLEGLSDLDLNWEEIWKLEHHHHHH

Sequence of S2hlx-4 (chain, as listed by the source): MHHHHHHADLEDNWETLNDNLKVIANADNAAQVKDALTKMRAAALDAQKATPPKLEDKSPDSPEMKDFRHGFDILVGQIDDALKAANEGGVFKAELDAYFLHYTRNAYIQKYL

B1: S2P6 mAb (antibody, V domains shown)
VH: EVQLVQSGAEVKKPGASVKVSCKASGYTFTSQYMHWVRQAPGQGLEWIGIINPSGVHTSYAQKFQGRVTLTRDTSTSTLYMELSSLRSEDTAVYYCARGSPKGAFDYWGQGTLVTVSS
VL: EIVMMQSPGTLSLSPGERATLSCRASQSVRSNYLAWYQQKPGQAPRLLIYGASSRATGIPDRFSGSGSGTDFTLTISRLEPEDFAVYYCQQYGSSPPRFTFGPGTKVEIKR
Kd [1]: 0.7 nM | Kd [2]: 664 nM | Kd [3]: 612 nM | Kd [4]: 82 nM | Kd [5]: 330 nM | Kd [6]: 45 nM | Kd [7]: 664 nM | Kd [8]: 296 nM | Kd [9]: 45.6 nM | EC50 (read off the curve) [10]: ~0.07 µg/mL | Kd [11]: 83 nM | Kd [12]: 52.8 nM | Kd [13]: 63 nM | Kd [14]: 47.7 nM | Kd [15]: 30 nM | Kd [16]: 10.7 nM | Kd [17]: 83 nM | Kd [18]: 52.8 nM | Kd [19]: 63 nM | Kd [20]: 30 nM | Kd [21]: 10.7 nM | Kd [22]: 6 nM | Kd [23]: 29.6 nM
